Assay results taken from publication PMC5458116.

Test system: MBP-ZnF4 (ZnF_1012 fused to GCN4-p-LI coiled coil) (synthetic construct)
Experiment: EMSA
Details: 5 nM DNA, 5 nM protein, 5 mM Tris-HCl pH 8.5, 210 mM NaCl, 4.8% glycerol, 0.05% Tween 20, 8 mg/l BSA, 30 min, room temperature, 5% native PAGE in 0.5x Tris-borate

Work on “CcrM-methylated 152 bp PCR fragment with 2 ZnF binding sites” yielded a binding signal (fold weaker than unmethylated DNA (N1)) (adenine-N6 methylated, N6-methyladenine at GANTC sites (CcrM in vitro, both strands)) of 70.

Work on “unmethylated 152 bp PCR fragment with 2 ZnF binding sites” yielded a binding signal (fold preference over methylated DNA (N2)) (unlabelled competitors added) of 70.
